From article PMC6140332

Target: T1, ERG (33-479) R367K (UniProt P11308 33-479, R367K)
T1 sequence: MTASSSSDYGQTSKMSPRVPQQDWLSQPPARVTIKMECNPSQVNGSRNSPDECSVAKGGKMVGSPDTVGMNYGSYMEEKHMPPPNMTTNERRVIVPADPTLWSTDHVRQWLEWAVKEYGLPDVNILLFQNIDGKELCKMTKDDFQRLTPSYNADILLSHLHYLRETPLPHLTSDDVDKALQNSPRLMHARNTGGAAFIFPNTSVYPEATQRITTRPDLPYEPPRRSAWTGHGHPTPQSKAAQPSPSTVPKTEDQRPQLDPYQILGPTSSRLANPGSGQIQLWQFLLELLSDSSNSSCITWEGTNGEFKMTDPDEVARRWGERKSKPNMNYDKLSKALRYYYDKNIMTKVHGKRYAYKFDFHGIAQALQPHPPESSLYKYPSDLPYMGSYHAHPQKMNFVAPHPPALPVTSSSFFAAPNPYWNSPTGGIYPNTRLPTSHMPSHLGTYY
Test: EMSA

B1: IRD800-Py (polyomavirus enhancer probe) (dsDNA)
DNA 1: GATCTTTAAGCAGGAAGTGACTAACTGACCGCAGGTGGATC
DNA 2: GATCCACCTGCGGTCAGTTAGTCACTTCCTGCTTAAAGATC
  binding result: no binding
